Literature values as cited in publication PMC3629029.

Target: calreticulin (Homo sapiens) (UniProt P27797)
Test: SPR

UniProt P27797, sequence (P27797 18-417): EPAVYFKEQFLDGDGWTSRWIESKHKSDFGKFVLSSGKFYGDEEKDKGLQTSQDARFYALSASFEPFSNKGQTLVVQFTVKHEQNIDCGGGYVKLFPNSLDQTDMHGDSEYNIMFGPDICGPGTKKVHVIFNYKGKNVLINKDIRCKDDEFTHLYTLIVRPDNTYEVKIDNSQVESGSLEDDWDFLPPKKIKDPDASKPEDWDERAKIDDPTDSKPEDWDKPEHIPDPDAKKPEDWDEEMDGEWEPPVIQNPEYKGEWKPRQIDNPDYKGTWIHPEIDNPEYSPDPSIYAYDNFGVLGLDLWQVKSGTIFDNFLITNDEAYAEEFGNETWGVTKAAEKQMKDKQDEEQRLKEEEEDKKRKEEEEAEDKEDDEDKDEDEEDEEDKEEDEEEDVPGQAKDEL

- Kd: 16 µM
Substance: PDIR (from UniProt Q14554)
